Experimental data from US20140056903A1 (Regeneron, published 2014).

T1: human GFRα3 expressed with a C-terminal mFc tag (human)
T1 construct: also called hGFRα3-mFc
T1 chain: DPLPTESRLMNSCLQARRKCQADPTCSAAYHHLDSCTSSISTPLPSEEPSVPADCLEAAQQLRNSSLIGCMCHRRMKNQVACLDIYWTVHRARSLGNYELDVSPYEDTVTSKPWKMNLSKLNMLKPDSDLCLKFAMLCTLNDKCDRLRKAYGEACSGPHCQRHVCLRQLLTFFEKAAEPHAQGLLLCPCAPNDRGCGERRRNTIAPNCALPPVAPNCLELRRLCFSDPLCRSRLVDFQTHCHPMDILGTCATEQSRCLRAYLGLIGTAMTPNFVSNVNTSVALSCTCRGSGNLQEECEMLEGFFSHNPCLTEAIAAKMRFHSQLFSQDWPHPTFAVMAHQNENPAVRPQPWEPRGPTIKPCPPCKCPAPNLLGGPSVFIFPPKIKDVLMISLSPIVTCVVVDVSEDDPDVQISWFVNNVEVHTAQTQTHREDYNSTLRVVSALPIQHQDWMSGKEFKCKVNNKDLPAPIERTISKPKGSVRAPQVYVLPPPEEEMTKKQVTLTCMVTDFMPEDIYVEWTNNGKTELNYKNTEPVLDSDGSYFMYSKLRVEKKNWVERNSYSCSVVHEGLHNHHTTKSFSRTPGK

T2: monkey GFRα3 expressed with a C-terminal myc-myc-hexahistidine tag (monkey (Mf), UniProt O60609 32-374 (human entry), limits assumed)
T2 construct: also called MfGFRα3-mmh; MfGFRα3-mmH
T2 chain: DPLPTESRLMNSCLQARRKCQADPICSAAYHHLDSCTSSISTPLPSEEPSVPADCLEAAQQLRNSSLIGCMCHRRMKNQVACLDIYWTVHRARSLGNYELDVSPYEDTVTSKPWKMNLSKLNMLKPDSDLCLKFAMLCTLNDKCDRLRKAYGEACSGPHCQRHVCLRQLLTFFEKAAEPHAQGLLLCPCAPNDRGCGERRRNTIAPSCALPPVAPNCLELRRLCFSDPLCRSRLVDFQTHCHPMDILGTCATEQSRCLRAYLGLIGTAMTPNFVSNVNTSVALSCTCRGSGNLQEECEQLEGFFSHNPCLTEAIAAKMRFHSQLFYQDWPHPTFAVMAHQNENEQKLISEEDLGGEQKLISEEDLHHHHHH


What was measured:
[1] = target: T3, human GFRα3 expressed with a C-terminal myc-myc-hexahistidine tag (human, UniProt O60609 32-374, biotinylated (sites not given) in ELISA format 2 and in the Octet cross-competition; not in SPR); assay: SPR, Ab captured, 25C
T3 construct: also called hGFRα3-mmh; hGFRα3-mmH
How it was run: (§1)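 Rate constants (ka, kd) came from 1:1 fits of 3-fold analyte dilution series (100–3.7 nM Fc-tagged, 200–7.4 nM mmh-tagged) flowed over antibody captured via anti-IgG on CM5. Buffers were HBS-EP or PBS with 0.05% P20, pH 7.4. KD and half-life were derived from kd/ka and ln2/(60*kd).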

[2] = target: T1, human GFRα3 expressed with a C-terminal …; assay: SPR, Ab captured, 25C
How it was run: as §1

[3] = target: T2, monkey GFRα3 expressed with a …; assay: SPR, Ab captured, 25C
How it was run: as §1

[4] = target: T3, human GFRα3 expressed with a C-terminal …; assay: Octet cross-competition; biotin-hGFRα3-mmH pre-saturated with first antibody H4H2243N2
Description: A cross-competition assay was conducted to assess the ability of select antibodies to compete with one another for binding to human GFRα3 using an Octet RED384 biosensor (Fortebio Inc.). The entire experiment was performed at 25° C. with the flow rate of 1000 rpm in Octet HBST buffer (0.01 M HEPES pH7.4, 0.15M NaCl, 3 mM EDTA, 0.05% v/v Surfactant P20, 0.1 mg/mL BSA). To assess whether 2 antibodies were able to compete with one another for binding to their respective epitopes on biotinylated recombinant human GFRα3 expressed with a C-terminal myc-myc-hexahistidine tag (biotin-hGFRα3-mmH; SEQ ID:370), around ˜1.2 nm of biotin-hGFRα3-mmH was first captured onto streptavidin-coated Octet sensor tips (Fortebio Inc, #18-5019) by submerging the tips for 1 minute into a 10 μg/mL solution of biotin-hGFRα3-mmH. The antigen coated sensor tips were then placed into wells containing 25 μg/mL solution of a first anti-GFRα3 monoclonal antibody for 4 minutes to saturate the biotin-hGFRα3-mmH surface. The sensor tips were then subsequently dipped into wells containing 25 μ/mL solution of a second anti-GFRα3 monoclonal antibody. The sensor tips were washed in Octet HBST buffer in between every step of the experiment. The real-time binding response was monitored during the course of the experiment and the binding response at the end of every step was recorded as shown in FIG. 9. The response of mAb-2 binding to biotin-hGFRα3-mmH pre-complexed with the first antibody was compared and competitive/non-competitive behavior of different anti-GFRα3 monoclonal antibodies was determined.

T3 sequence (O60609 other isoform, or with tags, fused parts or gaps limits assumed): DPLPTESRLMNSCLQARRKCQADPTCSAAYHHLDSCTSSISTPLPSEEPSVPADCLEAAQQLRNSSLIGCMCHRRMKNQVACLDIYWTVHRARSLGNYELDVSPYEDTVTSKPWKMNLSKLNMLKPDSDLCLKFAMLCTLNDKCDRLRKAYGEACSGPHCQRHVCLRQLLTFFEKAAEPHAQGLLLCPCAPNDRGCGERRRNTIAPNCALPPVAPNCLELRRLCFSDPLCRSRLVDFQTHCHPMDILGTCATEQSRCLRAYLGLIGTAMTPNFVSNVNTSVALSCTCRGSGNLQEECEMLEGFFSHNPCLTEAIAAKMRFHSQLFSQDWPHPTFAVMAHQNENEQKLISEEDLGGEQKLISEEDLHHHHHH

Row | Kd [1] [pM] | koff [1] [s⁻¹] | kon [1] [M⁻¹ s⁻¹] | t1/2 [1] [h] | Kd [2] [pM] | koff [2] [s⁻¹] | kon [2] [M⁻¹ s⁻¹] | t1/2 [2] [h] | Kd [3] [pM] | koff [3] [s⁻¹] | kon [3] [M⁻¹ s⁻¹] | t1/2 [3] [h] | binding response of second antibody (nm) [4] [nm] | Binder
1 | 82 | 5.81e-05 | 709000 | 3.32 | ≤ 0.467 | ≤ 1e-06 | 2.14e+06 | 192 | ≤ 2.9 | ≤ 1e-06 | 345000 | 192 | 0.46 | H4H2352S (antibody, human IgG4, V domains shown, human IgG4 Fc (H4H); also called H4H2352S-1) VH: EVQLVQSGAEVKKPGASVKVSCKASGYTFTNYGITWVRQAPGQGLEWMGWISAYNGNTGYAQKFQGRVTMTTDTSTSTAYMELRSLRSDDTAVYYCAREDYDFWRAFDIWGQGTMVTVSS VL: EIVLTQSPGTLSLSPGERATLSCRASQSVSSTYLAWLQQKPGQAPRLLIYGASSRATGIPDRFSGSGSGTDFTLTINRLEPEDFAVYYCQQYAYSPYTFGQGTKLEIK
2 | 2010 | 0.000207 | 103000 | 0.933 | 41.6 | 2.12e-05 | 509000 | 9.08 | 1710 | 0.000111 | 64700 | 1.73 | 1.2 | H4H2350P (antibody, human IgG4, V domains shown, human IgG4 Fc (H4H)) VH: QVQLQESGPGLVKPSETLSLTCTVSGGSISTYYWSWFRQPPGKGLEWIGYIYYSGSTNHNPSLKSRVTISVDTSKNQFSLKLRSVTAADTAVYYCARVGPVGWGSWGNFDYWGQGTLVTVSS VL: DIQLTQSPSFLSASVGDRVTITCWASQGISSYLAWSQQKPGKAPKLLIYAASTLQSGVPSRFSGSGSGTEFTLTISSLQPEDFATYYCQQLNSYPWTFGQGTKVEIK
